This sample holds only a part of the variants without activity.
Legend:
biotinyl-Met-oxazolone = assay: self-aminoacylation, catalytic enhancement (BMO) (fold over background); higher = more active; k-Seq, kA / k0A0; sequences stand for … in GGGAAUGGAUCCACAUCUACGAAUUC…UUCACUGCAGACUUGACGAAGCUG
Procedure, shortened: (§1)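 The uncatalyzed rate is the low-activity peak of a bimodal Gaussian fit, and catalytic enhancement is median kA divided by it. The kA values came from pseudo-first-order fits, with 1000 bootstraps, of per-sequence fraction reacted measured by streptavidin capture, triplicate qPCR and Illumina sequencing. Mutagenized RNA pools with a 21-nt variable region (0.43 μM) were reacted with each biotinyl-aminoacyl-oxazolone at 2–1250 μM in 50 μL HEPES/NaCl/KCl/MgCl2/CaCl2 buffer with 5% acetonitrile, pH 6.9–7.0, for 90 minutes at room temperature.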

biotinyl-Phe-oxazolone = assay: self-aminoacylation, catalytic enhancement (BFO) (fold over background); higher = more active; k-Seq, kA / k0A0; sequences stand for … in GGGAAUGGAUCCACAUCUACGAAUUC…UUCACUGCAGACUUGACGAAGCUG
Procedure, shortened: as §1

biotinyl-Val-oxazolone = assay: self-aminoacylation, catalytic enhancement (BVO) (fold over background); higher = more active; k-Seq, kA / k0A0; sequences stand for … in GGGAAUGGAUCCACAUCUACGAAUUC…UUCACUGCAGACUUGACGAAGCUG
Procedure, shortened: as §1

biotinyl-Ile-oxazolone = assay: self-aminoacylation, catalytic enhancement (BIO) (fold over background); higher = more active; k-Seq, kA / k0A0; sequences stand for … in GGGAAUGGAUCCACAUCUACGAAUUC…UUCACUGCAGACUUGACGAAGCUG
Procedure, shortened: as §1

biotinyl-Trp-oxazolone = assay: self-aminoacylation, catalytic enhancement (BWO) (fold over background); higher = more active; k-Seq, kA / k0A0; sequences stand for … in GGGAAUGGAUCCACAUCUACGAAUUC…UUCACUGCAGACUUGACGAAGCUG
Procedure, shortened: as §1

biotinyl-Leu-oxazolone = assay: self-aminoacylation, catalytic enhancement (BLO) (fold over background); higher = more active; k-Seq, kA / k0A0; sequences stand for … in GGGAAUGGAUCCACAUCUACGAAUUC…UUCACUGCAGACUUGACGAAGCUG
Procedure, shortened: as §1

Sequence | self-aminoacylation (biotinyl-Met-oxazolone) | self-aminoacylation (biotinyl-Phe-oxazolone) | self-aminoacylation (biotinyl-Val-oxazolone) | self-aminoacylation (biotinyl-Ile-oxazolone) | self-aminoacylation (biotinyl-Trp-oxazolone) | self-aminoacylation (biotinyl-Leu-oxazolone)
ACUACCCUGGACAUCGAGUGA [Fam2.1 aminoacylation ribozyme variant] | 7.03 | 20.6 | 2.92 | 2.55 | 7.37 | 6.83
ACUACCCUGGGCAUCGAGUGA [Fam2.1 aminoacylation ribozyme variant] | 7.11 | 41.4 | 4.49 | 3.65 | 6.86 | 7.95
ACUACCCUGGUCAACGAGUGA [Fam2.1 aminoacylation ribozyme variant] | 5.53 | 17 | 3.82 | 3.48 | 6.49 | 5.55
ACUACCCUGGUCAUCAAGUGA [Fam2.1 aminoacylation ribozyme variant] | 3.19 | 5.04 | 1.67 | 1.67 | 2.76 | 2.37
ACUACCCUGGUCAUCGAGCGA [Fam2.1 aminoacylation ribozyme variant] | 1.91 | 2.05 | 1.94 | 2.04 | 1.82 | 1.95
ACUACCCUGGUCAUCGAGUAA [Fam2.1 aminoacylation ribozyme variant] | 9.42 | 20.1 | 3.99 | 3.33 | 8 | 8.99
ACUACCCUGGUCAUCGAGUGU [Fam2.1 aminoacylation ribozyme variant] | 58.6 | 409 | 20.3 | 16.3 | 53.1 | 59.7
ACUACCCUGGUCAUCGCGUGA [Fam2.1 aminoacylation ribozyme variant] | 17.9 | 163 | 12.1 | 8.88 | 19.3 | 21.5
ACUACCCUGGUCAUCGUGUGA [Fam2.1 aminoacylation ribozyme variant] | 4.14 | 24.4 | 2.33 | 1.58 | 3.83 | 3.39
ACUACCCUGGUCAUCUAGUGA [Fam2.1 aminoacylation ribozyme variant] | 7.5 | 63.1 | 3.97 | 3.86 | 7.62 | 7.72
ACUACCCUGGUCAUUGAGUGA [Fam2.1 aminoacylation ribozyme variant] | 7.75 | 34 | 4.05 | 4.12 | 8.89 | 8.8
ACUACCCUGGUCCUCGAGUGA [Fam2.1 aminoacylation ribozyme variant] | 4.59 | 17.6 | 2.25 | 2.6 | 4.3 | 3.84
ACUACCCUGGUCGUCGAGUGA [Fam2.1 aminoacylation ribozyme variant] | 1.49 | 6.66 | 1.19 | 1.17 | 0.701 | 1.95
ACUACCCUGGUGAUCGAGUGA [Fam2.1 aminoacylation ribozyme variant] | 6.46 | 28 | 3.6 | 4.03 | 9.48 | 7.61
ACUACCUUGGUCAUCGAGUGA [Fam2.1 aminoacylation ribozyme variant] | 3.77 | 10.5 | 3.23 | 2.96 | 5.82 | 4.02
ACUCACCGAGGUCAUCGGGUG [Fam2.2 aminoacylation ribozyme variant] | 6.05 | 41.6 | 5.07 | 4.34 | 8.16 | 7.63
ACUCACCUAGAUCAUCGGGUG [Fam2.2 aminoacylation ribozyme variant] | 2.99 | 26.9 | 3.13 | 2.9 | 5.49 | 3.38
ACUCACCUAGGACAUCGGGUG [Fam2.2 aminoacylation ribozyme variant] | 3.82 | 20.1 | 4.87 | 3.36 | 4.88 | 4.64
ACUCACCUAGGUCAACGGGUG [Fam2.2 aminoacylation ribozyme variant] | 2.67 | 8.54 | 2.22 | 1.94 | 3.14 | 2.29
ACUCACCUAGGUCAGCGGGUG [Fam2.2 aminoacylation ribozyme variant] | 4.16 | 31.4 | 3.86 | 3.56 | 4.54 | 4.43
ACUCACCUAGGUCAUAGGGUG [Fam2.2 aminoacylation ribozyme variant] | 1.57 | 1.46 | 1.36 | 1.31 | 1.58 | 1.39
ACUCACCUAGGUCAUCGCGUG [Fam2.2 aminoacylation ribozyme variant] | 7.39 | 70 | 6.93 | 5.51 | 9.66 | 10.6
ACUCACCUAGGUCAUCGGGUU [Fam2.2 aminoacylation ribozyme variant] | 8.19 | 31.3 | 5.06 | 5.92 | 6.68 | 11.3
ACUCACCUAGGUCUUCGGGUG [Fam2.2 aminoacylation ribozyme variant] | 4.6 | 29.7 | 4.96 | 4.2 | 6.33 | 6.01
ACUCACCUAGUUCAUCGGGUG [Fam2.2 aminoacylation ribozyme variant] | 3.46 | 19.7 | 3.36 | 2.87 | 3.85 | 3.86

Reference: the supplement of paper PMC9233669
